# Test results from patent US20080242590A1, “New Method 706” (ASTRAZENECA AB, priority 2007, published 2008).
# Columns and labels:
# [1] = Pharmacokinetics of Fc-Nep and in-house produced Neprilysin, single i.v. dose (Example 27); type: in vivo; conditions: mice, single i.v. dose 10 or 50 nmol enzyme/kg (1 and 5 mg/kg)
# Description: The Fc-Nep fusion protein was developed to improve the pharmacokinetic entities of neprilysin with the specific aims to reduce clearance and improve half-life. To test this we have administrated a single i.v. dose of 10 or 50 nmol enzyme/kg body weight neprilysin (Nep) or Fc-Nep (1 and 5 mg/kg) to mice. At set times the dose blood samples were drawn from the tail vein or by heart puncture at termination. Upon sampling into tubes containing EDTA the aliquots were put on ice. Plasma was prepared by centrifugation within 15 minutes of sampling (typically 1500 g at 4° C. for 10 min) and immediately frozen. Plasma concentrations of Nep and Fc-Nep were determined via immunoassays using either anti-Nep for Nep or anti-human IgG for Fc-Nep as capture antibodies while both substances were detected via an anti-Nep antibody. Pharmacokinetic parameters are calculated using a software package (WinNonlin, Pharsight Corporation, USA) and in this example experiment the calculated half-life had increased from about 1 day for Nep to about 2.5 weeks for Fc-Nep.
# soluble Aβ40 = experiment: Soluble Aβ40 in plasma after acute i.v. treatment (Example 23); type: in vivo, APPSWE-transgenic mice
# Description: (§1) The objective with this study was to evaluate the time and dose-response effect of Fc-Nep in plasma of female APPSWE-tg mice after acute intraveneous treatment. The specific purpose is to find an effect on plasma Aβ40 and Aβ42. The γ-secretase inhibitor M-550426 is included as a reference compound.
# (§2) 25-31 weeks old female APPSWE-transgenic mice (10 mice/group) received vehicle or the Fc-Nep at 1 or 5 mg/kg as a single intravenous injections. As a reference compound, 300 μmol/kg of the γ-secretase inhibitor M-550426 was used and these animals was treated in 3 hours (4 mice). […] Blood was sampled from vehicle- and compound-treated animals at 1.5 and 3 hours after dose. Blood was withdrawn from anaesthetized mice by heart puncture into pre-chilled microtainer tubes containing EDTA. Blood samples were immediately put on ice prior to centrifugation. Plasma was prepared by centrifugation for 10 minutes at approximately 3000×g at +4° C. within 20 minutes from sampling. After blood sampling, mice were terminated. Aβ40 and Aβ42 levels in plasma were analyzed by commercial ELISA kit obtained from Biosource and Innogenetics, respectively.
# [2] = Plasma exposure (Example 24); type: in vivo, C57BL/6 mice
# Description: 13 weeks old female C57BL/6 mice (10 mice/group) received vehicle or hFc-Nep at 1 or 5 mg/kg as a single intravenous injection. M-550426 was administrated per orally at 300 μmol/kg 3 hours before termination. A blank group was also included in the study.
# Blood was sampled from vehicle- and compound-treated animals at 1.5 and 3 hours after dose. Blood was withdrawn from anaesthetized mice by heart puncture into pre-chilled microtainer tubes containing EDTA. Blood samples were immediately put on ice prior to centrifugation. Plasma was prepared by centrifugation for 10 minutes at approximately 3000×g at +4° C. within 20 minutes from sampling. After blood sampling, mice were terminated. […] Mouse Aβ40 levels in plasma were analysed by commercial ELISA kit obtained from Biosource. The concentrations of Fc-Nep in plasma and in the formulations were assayed according to the procedures described in Example 27.
# [3] = Plasma exposure (Example 23); type: in vivo, APPSWE-transgenic mice; conditions: for Mean plasma exposure: 1.5 hours; for Plasma exposure: 3 hours
# Description: The Fc-Nep fusion protein was developed to improve the pharmacokinetic entities of neprilysin with the specific aims to reduce clearance and improve half-life. To test this we have administrated a single i.v. dose of either 1 mg/kg commercial neprilysin or 1 alternatively 5 mg/kg in-house produced Fc-Nep to mice. At set times after dosing blood samples were drawn from the tail vein or by heart puncture at termination. Upon sampling into tubes containing EDTA the aliquots were put on ice. Plasma was prepared by centrifugation within 15 minutes of sampling (typically 1500 g at 4° C. for 10 min) and immediately frozen. Plasma concentrations of Fc-Nep and neprilysin were determined via immunoassays using either anti-Nep for commercial neprilysin or anti-human IgG for Fc-Nep as capture antibodies while both substances were detected via an anti-Nep antibody. Pharmacokinetic parameters are calculated using a software package (WinNonlin, Pharsight Corporation, USA) and in this example experiment the calculated half-life had increased from about 5 minutes for Nep to about 20 hours for Fc-Nep.
# as §2
# The concentrations of Fc-Nep in plasma and in the formulations were assayed according to the procedures described in Example 20. The exposure in plasma was analysed in samples from non-treated animals (blank) and in samples from animals treated with M550426.
# amyloid β 1-40 = experiment: Degradation of Aβ 1-40 in human plasma pool (Example 28); type: biochemical; conditions: room temperature, 1 hour
# Description: Blood from twelve individuals (6 females and 6 males) were collected into pre-chilled heparin-plasma tubes at the healthcare centre (AstraZeneca) at three different time points. Plasma was prepared by centrifugation at 2500×g for 20 min at 4° C. Plasma samples were collected and transferred to pre-chilled polypropylene tubes and immediately frozen and stored at −70° C. prior to use. Plasma was thawed and pooled from 12 individuals just before the experiment. Aβ 1-40 and 1-42 in plasma pool was degraded by human Fc-Nep or mouse Fc-Nep with corresponding vehicles (50 mM Tris-HCl, 150 mM NaCl pH 7.5). The following final concentrations of the Fc-Nep constructs were used, 100, 32, 10, 3.2, 1, 0.3, 0.1 and […] and the degradation occurred at room temperature for 1 hour while shaking on an orbital shaker. The enzymatic reaction was stopped by adding Phosphoramidone (10 μM final concentration). Concentration of amyloid β 1-40 in human plasma pool was measured using ELISA kit (Biosource; KHB3481) according to the manufacturers instructions.
# [4] = Plasma exposure (Example 25); type: in vivo, C57BL/6 mice; conditions: for Mean plasma exposure: 5 mg/kg i.v.
# Description: 20-21 weeks old female C57BL/6 mice (8 mice/group) received vehicle or hFc-Nep at 5 mg/kg as a single intravenous injection and Aβ40 was analysed at different time points after injection (between 1.5-168 hours, i.e., up to 1 week). The γ-secretase inhibitor M-550426 was given per orally and the animals were treated for 3 hours. A blank group was also included in the study. […] Blood collection, plasma processing and measurement of mouse Aβ40 levels in plasma were basically as described in Example 27.
# soluble Aβ42 = experiment: Soluble Aβ42 in plasma after acute i.v. treatment (Example 23); type: in vivo, APPSWE-transgenic mice
# Description: as §1, §2
molecule,measurement,setting,value
"Fc-Neprilysin: extracellular domain of human Neprilysin fused to the human IgG2 Fc domain (including hinge), Fc at N-terminus; SEQ ID NO 11 (protein) ERKCCVECPPCPAPPVAGPSVFLFPPKPKDTLMISRTPEVTCVVVDVSHEDPEVQFNWYVDGVEVHNAKTKPREEQFNSTFRVVSVLTVVHQDWLNGKEYKCKVSNKGLPAPIEKTISKTKGQPREPQVYTLPPSREEMTKNQVSLTCLVKGFYPSDIAVEWESNGQPENNYKTTPPMLDSDGSFFLYSKLTVDKSRWQQGNVFSCSVMHEALHNHYTQKSLSLSPGKYDDGICKSSDCIKSAARLIQNMDATTEPCTDFFKYACGGWLKRNVIPETSSRYGNFDILRDELEVVLKDVLQEPKTEDIVAVQKAKALYRSCINESAIDSRGGEPLLKLLPDIYGWPVATENWEQKYGASWTAEKAIAQLNSKYGKKVLINLFVGTDDKNSVNHVIHIDQPRLGLPSRDYYECTGIYKEACTAYVDFMISVARLIRQEERLPIDENQLALEMNKVMELEKEIANATAKPEDRNDPMLLYNKMTLAQIQNNFSLEINGKPFSWLNFTNEIMSTVNISITNEEDVVVYAPEYLTKLKPILTKYSARDLQNLMSWRFIMDLVSSLSRTYKESRNAFRKALYGTTSETATWRRCANYVNGNMENAVGRLYVEAAFAGESKHVVEDLIAQIREVFIQTLDDLTWMDAETKKRAEEKALAIKERIGYPDDIVSNDNKLNNEYLELNYKEDEYFENIIQNLKFSQSKQLKKLREKVDKDEWISGAAVVNAFYSSGRNQIVFPAGILQPPFFSAQQSNSLNYGGIGMVIGHEITHGFDDNGRNFNKDGDLVDWWTQQSASNFKEQSQCMVYQYGNFSWDLAGGQHLNGINTLGENIADNGGLGQAYRAYQNYIKKNGEEKLLPGLDLNHKQLFFLNFAQVWCGTYRPEYAVNSIKTDVHSPGNFRIIGTLQNSAEFSEAFHCRKNSYMNPEKKCRVW",calculated half-life,[1],about 2.5 weeks
same,Change in plasma Aβ40,"soluble Aβ40; 1 and 5 mg/kg i.v., 3 hours after dose",No significant changes
same,Reduction of soluble Aβ40 in plasma compared to vehicle,"soluble Aβ40; 1 or 5 mg/kg i.v., 1.5 hours after dose, P<0.05",approximately 20%
same,Mean plasma exposure,"[2]; 1 mg/kg i.v., 1.5 hours",14 µg/mL
same,Mean plasma exposure,"[2]; 1 mg/kg i.v., 3 hours",17 µg/mL
same,Mean plasma exposure,"[2]; 5 mg/kg i.v., 1.5 hours",89 µg/mL
same,Mean plasma exposure,"[2]; 5 mg/kg i.v., 3 hours",78 µg/mL
same,Mean plasma exposure,[3]; 1 mg/kg i.v.,9.8 µg/mL
same,Plasma exposure,[3]; 1 mg/kg i.v.,7.6 µg/mL
same,Mean plasma exposure,[3]; 5 mg/kg i.v.,33.6 µg/mL
same,Plasma exposure,[3]; 5 mg/kg i.v.,27.3 µg/mL
same,Degradation of amyloid β 1-40 compared to plasma without treatment,amyloid β 1-40; highest concentration 100 μg/ml,66%
same,EC50,amyloid β 1-40,580 nM
same,Mean plasma exposure,[4]; 1 week (168 hours),38 µg/mL
same,Mean plasma exposure,[4]; 1.5 hours,87 µg/mL
same,half-life in mice,[4]; 5 mg/kg single i.v.,considerably long
same,Change in plasma Aβ42,"soluble Aβ42; 1 mg/kg i.v., 1.5 hours",No significant change
same,Reduction of Aβ42 in plasma compared to vehicle,"soluble Aβ42; 5 mg/kg i.v., 1.5 hours, P<0.05",approximately 20%
same,Change in plasma Aβ42,"soluble Aβ42; any of the doses (1 and 5 mg/kg), 3 hours",No significant changes
